Source: paper PMC7789814, “The influence of various regions of the FOXP2 sequence on its structure and DNA-binding function”
Values belong to the molecule of their own block, whether it stands above or below them.

Tests used:
[1] = target: FOXP1 LZ-END; assay: SEC; 20 µM protein incubated at 20°C for at least 30 min; Superdex 200 10/300 GL; running buffer 500 mM NaCl, 10 mM HEPES pH 7.5, 2 mM DTT; calibrated with 12-200 kDa markers; oligomer size predicted from the monomeric size
[2] = target: FOXP2 FHD-END; assay: SEC; 20 µM protein incubated at 20°C for at least 30 min; HiLoad 16/60 Superdex 75 prep grade; running buffer 500 mM NaCl, 10 mM HEPES pH 7.5, 2 mM DTT; calibrated with 12-200 kDa markers; oligomer size predicted from the monomeric size
[3] = target: FOXP2 LZ-END; assay: SEC; 20 µM protein incubated at 20°C for at least 30 min; Superdex 200 10/300 GL; running buffer 500 mM NaCl, 10 mM HEPES pH 7.5, 2 mM DTT; calibrated with 12-200 kDa markers; oligomer size predicted from the monomeric size
[4] = target: T1, FOXP1 LZ-FHD (UniProt Q9H334 332-555); assay: fluorescence anisotropy; FA: 10 mM HEPES pH 7.5, 100 mM NaCl, 0.02% NaN3, 500 nM DNA, temperature not stated; EMSA: 10 mM HEPES pH 7.5, 1 mM MgCl2, 100 mM KCl, 10% glycerol, 0.1 mg/ml BSA, 500 nM DNA, on ice, gel at 4 C; details: protein: recombinant; chain copies: 2; blunt
T1 sequence: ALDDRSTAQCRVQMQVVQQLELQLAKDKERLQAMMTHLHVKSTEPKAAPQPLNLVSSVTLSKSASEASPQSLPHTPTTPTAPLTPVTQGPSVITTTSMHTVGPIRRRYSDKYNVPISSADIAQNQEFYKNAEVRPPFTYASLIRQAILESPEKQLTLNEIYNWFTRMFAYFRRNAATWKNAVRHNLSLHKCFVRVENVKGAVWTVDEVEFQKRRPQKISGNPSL

[5] = target: T2, FOXP1 LZ-END (UniProt Q9H334 332-677); assay: as above; details: protein: recombinant; (purified by nickel IMAC); chain copies: 4; blunt
T2 sequence: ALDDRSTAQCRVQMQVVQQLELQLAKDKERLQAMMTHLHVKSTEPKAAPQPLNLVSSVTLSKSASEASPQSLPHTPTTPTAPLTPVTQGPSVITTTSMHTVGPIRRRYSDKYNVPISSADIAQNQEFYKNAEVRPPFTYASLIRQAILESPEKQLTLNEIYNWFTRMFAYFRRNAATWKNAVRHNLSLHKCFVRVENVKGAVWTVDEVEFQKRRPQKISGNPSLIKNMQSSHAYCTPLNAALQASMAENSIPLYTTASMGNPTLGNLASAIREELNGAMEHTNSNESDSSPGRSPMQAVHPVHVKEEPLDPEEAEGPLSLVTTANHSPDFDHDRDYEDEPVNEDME

[6] = target: T3, FOXP2 FHD-END (UniProt O15409 504-715); assay: as above; details: protein: recombinant; (purified by nickel IMAC); chain copies: 2; blunt
T3 sequence: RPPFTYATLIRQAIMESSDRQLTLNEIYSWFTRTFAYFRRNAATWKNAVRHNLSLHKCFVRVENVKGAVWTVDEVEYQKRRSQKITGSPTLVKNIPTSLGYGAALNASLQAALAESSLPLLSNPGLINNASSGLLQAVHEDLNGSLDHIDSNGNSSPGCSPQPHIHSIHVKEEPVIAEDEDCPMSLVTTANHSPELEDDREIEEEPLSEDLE

[7] = target: T4, FOXP2 LZ-END (UniProt O15409 372-715); assay: as above; details: protein: recombinant; (purified by nickel IMAC); chain copies: 8; blunt
T4 sequence: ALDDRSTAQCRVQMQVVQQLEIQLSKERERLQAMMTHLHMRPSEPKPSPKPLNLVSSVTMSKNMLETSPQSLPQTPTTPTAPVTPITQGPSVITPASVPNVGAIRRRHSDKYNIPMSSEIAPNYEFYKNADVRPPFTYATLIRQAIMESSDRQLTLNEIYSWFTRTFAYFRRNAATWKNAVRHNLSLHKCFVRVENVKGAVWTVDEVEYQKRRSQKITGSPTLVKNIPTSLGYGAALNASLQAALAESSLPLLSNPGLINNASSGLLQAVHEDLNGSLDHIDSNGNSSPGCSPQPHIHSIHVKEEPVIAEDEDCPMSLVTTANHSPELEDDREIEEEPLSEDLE

[8] = target: T5, FOXP2 LZ-FHD (UniProt O15409 372-594); assay: as above; details: protein: recombinant; (purified by nickel IMAC); chain copies: 2; blunt
T5 sequence: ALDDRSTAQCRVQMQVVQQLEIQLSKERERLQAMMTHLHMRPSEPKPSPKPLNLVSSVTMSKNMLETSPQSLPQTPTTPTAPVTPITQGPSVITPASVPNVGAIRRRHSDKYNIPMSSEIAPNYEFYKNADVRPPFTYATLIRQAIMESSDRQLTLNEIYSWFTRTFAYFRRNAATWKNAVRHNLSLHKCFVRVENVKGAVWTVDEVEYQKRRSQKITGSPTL

[9] = target: T6, FOXP2 FHD (UniProt O15409 504-594); assay: as above; details: protein: recombinant; (purified by nickel IMAC); blunt
T6 sequence: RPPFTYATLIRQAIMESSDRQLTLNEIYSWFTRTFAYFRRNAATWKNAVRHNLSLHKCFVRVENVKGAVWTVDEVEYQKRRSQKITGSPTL

percent of the species in the larger oligomer [1]: 60%
stoichiometry N [1]: 4
Molecule: FOXP1 LZ-END (domain or fragment)

stoichiometry N [2]: 2
Molecule: FOXP2 FHD-END (domain or fragment)

percent of the species in the larger oligomer [3]: 70%
stoichiometry N [3]: < 8
Molecule: FOXP2 LZ-END (domain or fragment)

B1: FOXP2 cognate DNA, ROX-labelled (dsDNA)
DNA 1: TTAGGTGTTTACTTTCATAG
DNA 2: CTATGAAAGTAAACACCTAA
Kd [4]: 766 ± 12.1 nM
Kd [5]: 1280 ± 70.4 nM
Kd [6]: 1900 ± 25.1 nM
Kd [7]: 326 ± 73.2 nM
Kd [8]: 347 ± 55.4 nM
Kd [9]: 1746 ± 15.9 nM
